Source: patent US20090022669A1, “COMPOSITIONS FOR PROTEIN DELIVERY VIA THE PULMONARY ROUTE” (VAPOTRONICS, INC., priority 2001, published 2009)

Assays:
[1] = Droplet size of the thermal inkjet aerosol measured by Malvern laser; format: physicochemical; conditions: hGH 2 mg/mL, 6% w/w PEG 3000, 0.1% w/v TWEEN 20, unbuffered
[2] = tested on: receptors introduced to the cells specific to the test protein; test: Transgenic cell bioassay of recovered aerosol versus formulation before aerosolization; format: cell-based; conditions: hGH 2 mg/mL, 6% w/w PEG 3000, 0.1% w/v TWEEN 20; thermal inkjet, aerosol condensed and recovered; FIG. 1
Method: Proteins were tested with a transgenic cell bioassays with receptors introduced to the cells specific to the test protein. These bioassays were appropriate for indicating the functional effectiveness of the protein. Molecular assays were performed to indicate the primary or tertiary structure of the molecule. Assays used included size exclusion high performance liquid chromatography, reverse phase high performance liquid chromatography, mass spectrometry, isoelectric focusing and immunoassay.
Each protein was formulated at a concentration that was calculated to be of clinical significance such that the plume of aerosol contained the required amount of therapeutic. Humectant was added to the protein formulation which was filled into an inkjet cartridge and fired from the cartridge.
Resistor surfaces and nozzles were inspected by Scanning Electron Microscopy to establish the cleanliness of the surfaces and subsequently the effectiveness of the humectant and surfactant. When humectant and surfactant concentrations were suitable, the aerosol from the device was collected, analyzed, and compared with the solution before aerosolization.
Human growth hormone (hGH) was formulated at 2 mg/mL with 6% w/w PEG 3000 and 0.1% w/v TWEEN® 20. The formulation was unbuffered and no additional salts were added to the formulation. […]

[3] = Molecular assays (HPLC, mass spectrometry, isoelectric focusing, immunoassay) of recovered aerosol versus initial formulation; format: physicochemical
Text: During testing, it was useful to ensure that the composition of the aerosol emanating from the device was the same in all discernable aspects as the formulation filled into the device.

Human growth hormone
average droplet size of formulation aerosol [1]: 8 μm
bioassay comparison of formulation before and after aerosolization [2]: no measurable difference
HPLC comparison of formulation before and after aerosolization ([3]; hGH 2 mg/mL, 6% w/w PEG 3000, 0.1% w/v TWEEN 20, thermal inkjet, aerosol condensed and recovered): no measurable difference

Insulin
reverse-phase HPLC comparison (retention time, peak shape) before, after recovered and after repeated aerosolization ([3]; insulin 10 mg/mL, 6% w/v PEG 8000, 0.1% w/v TWEEN 80, thermal inkjet, FIG. 2): no measurable differences

CN1CCCC1c1cccnc1 (centres unmarked) [Nicotine, reference compound]
comparison of solution during or after dosage (aerosolization) ([3]; nicotine up to 50% w/w in water with 0.1% w/v TWEEN 20): no measurable difference
